Results from the Human Domainome abundance scans (Beltran et al. 2025).

B1: Neutrophil cytosol factor 2, residues 456 to 514; numbered along this chain, P19878 (parent)
chain: LKKGSQVEALFSYEATQPEDLEFQEGDIILVLSKVNEEWLEGECKGKVGIFPKVFVEDC
B2: COUP transcription factor 1, residues 83 to 159; numbered along this chain, P10589 (parent)
chain: HIECVVCGDKSSGKHYGQFTCEGCKSFFKRSVRRNLTYTCRANRNCPIDQHHRNQCQYCRLKKCLKVGMRREAVQRG

Variants of: B1
Experiment: abundance fitness (aPCA) (normalised: wild type 0, dead -1); higher = more abundant; growth selection in yeast, the domain comes from the species named
Details: Homo sapiens

Abundance fitness of substitutions, site by site:
E8: A 0.164; V 0.959; S 0.048; Q 0.472; R 1.16; L 0.433; M 0.684; G -0.093; N 0.524; P -0.363; T 0.126; I 0.744; F 0.452; K 1.17
L10: N -0.226; G -0.57; M 0.116; E -0.667; V -0.609; S -0.789; T -0.528; W -0.92; P -0.539; R 0.046; K -0.611
G4: W -0.84; C -0.371; R -0.535; V -0.452; I 0.575; Y -0.89; K -0.193; F -0.312; L -0.83; P -0.208; D -0.031; A -0.695
D20: E 0.757; H 0.904; S -0.528; Q 0.093; C 0.014; A -0.198; K -0.683; Y 0.142; L -0.071; N -0.703; W -0.7; P -0.162; I -0.375; G -0.125; V -0.578; M 0.06
F11: A 0.567; G -0.176; N 0.029; E -0.572; C 0.418; V 0.035; L -0.314; M -0.084; Y -0.191; S -0.333; W -0.392; I -0.772; K 0.153; T -0.347; R 0.145
S5: A 0.353; P -0.804; E 0.099; Y 0.219; F 0.011; M 0.216; V -0.056; I -0.299; G -1.17; K 0.309; R -0.116; L -0.289; D 0.797; Q -0.365; T -0.037
A9: I -0.533; W -0.432; F -0.2; M -0.532; V -1.13; G -0.439; L -0.471; C 0.167; P 0.082; N -0.537; T -0.476; R -0.688; E -0.361; S -0.726
T16: Q -0.158; E -0.368; G -0.192; I -0.926; A -0.475; C -0.426; D -0.428; V -0.36; S -0.153; H -0.617; K 0.397; N -0.304; M -0.164; W -0.651; F -0.609; L -0.076; R -0.457
Q6: A -0.717; C -0.337; V 0.538; H 0.427; P -0.924; R 0.028; W 0.367; I -0.133; L 0.437; G -0.72; M 0.023; F 0.714; S -0.667; K 0.157; E -0.158
L1: E 0.143; Y 0.581; G -0.053; K -0.529; W 0.161; I 0.114; F 0.593; R 0.08; M 0.035; S -0.217; N -0.024; V -0.294
Q17: N -0.093; A 0.324; R 0.296; F -0.793; E -0.504; H -0.123; C 0.148; I -0.393; W -0.753; V -0.643; P -1.03; Y -0.09; M -0.27; G 0.478; S 0.615; T 0.2; L -0.266; K 0.796
P18: C -0.691; D 0.315; I -0.651; M -0.235; N -0.074; H -0.537; L -0.801; S -0.587; G -0.613; E -0.48; T -0.599; K -0.558; W -0.711; V -0.648; R -0.163; Q -0.83; F -0.634; A -0.284
K3: T -0.094; S -0.474; G -0.714; A -0.483; V -0.033; I 0.207; C 0.761; M -0.005; P 0.347; Y -0.479; D -0.366; E -0.067; F -0.153; R -0.397; W -0.781; L -0.337
E19: F -0.676; N 0.156; K -0.723; G 0.598; M -0.463; W -0.166; I -0.305; S -0.229; R -0.295; V -0.443; P -1.06; D -0.501; Q -0.216; H -0.096; L 0.006; A -0.172; C -0.112; T -0.055
A15: Y -0.617; P -0.005; C -0.362; L -0.827; W -0.48; G -0.152; R -0.417; I -0.357; D -0.73; N -0.853; T -1.03; F -0.606; S 0.051; H -0.954
L21: H -0.483; C -0.585; A -0.565; D -0.323; G -0.369
E14: V 0.027; R 0.096; T 0.319; G -0.233; C -0.301; P 0.023; L -0.231; F -0.236; N 0.074; A 0.059; K 0.217; W -0.168; H 0.236; Y -0.215; M -0.483; S -0.123; I -0.304; D -0.073; Q 0.068
S12: C -0.595; Y -0.841; N -0.206; R -0.315; P -0.257; D -0.139; K -0.609; V -0.816; E -0.937; L -0.086; I -0.069; M -0.382; T -0.119; G -0.377; H -0.44; W -0.557
Y13: D -0.646; C -0.432; N -0.472; L -0.573; F -0.391; G -0.165; A -0.505; K -0.307; I -0.487; H -0.104; S -0.487; E -0.499; R 0.458; W -0.484; M 0.207; T -0.644; P -0.21
K2: T 0.427; E -0.415; F 0.093; P 0.067; G -0.307; H 0.249; M -0.593; W -0.109; R 0.002; L -0.46; A 0.146; S -0.347; N 0.141; V -0.337
V7: W -0.999; T 0.249; P -0.506; A -0.662; M -0.99; G -0.67; S -0.287; L -0.633; R -0.343; F -0.414; D -0.907; I -0.805

Variants of: B2
Experiment: as above
Details: Homo sapiens

Abundance fitness, by site and new letter:
Y58: I -0.866
Q57: F -0.036
E3: H -0.15
V67: D -0.398
L61: D -0.799
H15: M 0.548
N45: L -0.322; H -0.182
R44: I 0.038; M 0.057
R34: L -0.161
K14: S 0.174
Q55: Y -0.039
K10: C -0.105; Q 0.022; G -0.114
S11: H 0.314
C24: D -0.335
F27: A -0.812
H51: Y -0.09; G 0.034
L36: A -0.064
A42: N -0.45
T37: C -0.048
C21: K -0.818
V32: H 0.19
